{
  "source": "paper PMC4526367",
  "about": "“Weak Interactions between Salmonella enterica FlhB and Other Flagellar Export Apparatus Proteins Govern Type III Secretion Dynamics” (PLoS ONE, 2015)",
  "key": {"[1]": {"target": "FlhB cytoplasmic domain (Salmonella enterica) (UniProt P40727)", "test": "SPR", "conditions": "cited from earlier work"}, "[2]": {"target": "cytoplasmic domain of FlhA (FlhAC) (UniProt P40729)", "sequence (P40729 whole entry, the tested form may be a part)": "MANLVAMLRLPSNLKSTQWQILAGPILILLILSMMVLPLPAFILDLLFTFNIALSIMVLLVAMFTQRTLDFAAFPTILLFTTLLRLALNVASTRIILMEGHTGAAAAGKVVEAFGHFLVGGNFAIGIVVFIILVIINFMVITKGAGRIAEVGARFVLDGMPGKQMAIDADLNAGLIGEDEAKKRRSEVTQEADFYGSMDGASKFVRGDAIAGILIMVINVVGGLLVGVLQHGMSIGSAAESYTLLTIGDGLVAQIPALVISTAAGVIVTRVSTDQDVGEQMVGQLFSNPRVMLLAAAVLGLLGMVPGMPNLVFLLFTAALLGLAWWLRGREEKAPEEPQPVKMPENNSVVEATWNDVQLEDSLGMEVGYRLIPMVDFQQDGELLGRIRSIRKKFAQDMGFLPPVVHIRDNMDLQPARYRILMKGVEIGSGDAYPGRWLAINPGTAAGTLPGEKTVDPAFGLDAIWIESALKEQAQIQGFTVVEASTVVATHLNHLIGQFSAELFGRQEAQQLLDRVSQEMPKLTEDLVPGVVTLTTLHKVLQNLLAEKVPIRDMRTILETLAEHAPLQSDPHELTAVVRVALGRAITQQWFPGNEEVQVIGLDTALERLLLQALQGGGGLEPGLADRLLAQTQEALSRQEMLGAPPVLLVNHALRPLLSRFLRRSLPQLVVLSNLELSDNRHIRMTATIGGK", "test": "BLI; FlhAC ligand on streptavidin sensors, FlhBC analyte 2, 1, 0.5, 0.25 and 0.125 uM; HBS-T, 25°C; one-state association fits, global two-state dissociation fit, steady state analysis, kobs vs [FlhBC]"}, "[3]": {"target": "cytoplasmic domain of FlhA (FlhAC) (UniProt P40729)", "test": "BLI; FlhAC ligand on streptavidin sensors, FlhBC analyte 2, 1, 0.5, 0.25 and 0.125 uM; HBS-T, 25°C; one-state association fits, global two-state dissociation fit, steady state analysis, kobs vs [FlhBC]", "remark": "listed apart in the source"}, "FliK": {"target": "FliK (UniProt P26416)", "sequence (P26416 whole entry)": "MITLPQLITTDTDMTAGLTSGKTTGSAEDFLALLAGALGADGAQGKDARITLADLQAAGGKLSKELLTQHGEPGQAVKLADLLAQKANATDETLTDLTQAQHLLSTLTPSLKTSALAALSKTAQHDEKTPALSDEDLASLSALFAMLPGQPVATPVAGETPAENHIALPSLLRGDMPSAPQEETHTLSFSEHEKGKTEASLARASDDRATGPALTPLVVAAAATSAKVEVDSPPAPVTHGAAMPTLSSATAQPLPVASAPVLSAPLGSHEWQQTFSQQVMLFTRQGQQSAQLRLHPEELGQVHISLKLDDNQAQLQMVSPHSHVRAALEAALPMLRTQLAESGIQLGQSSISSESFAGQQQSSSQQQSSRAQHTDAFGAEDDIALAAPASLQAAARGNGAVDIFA", "test": "BLI"}, "FliI [4]": {"target": "T1, FliI (UniProt P26465 1-456, biotin by amine crosslinking (NHS-LC-LC-biotin) when used as ligand)", "T1 construct": "source: E. coli BL21DE3(pLysS), purified (Talon IMAC, gel filtration into HBS-T)", "T1 sequence": "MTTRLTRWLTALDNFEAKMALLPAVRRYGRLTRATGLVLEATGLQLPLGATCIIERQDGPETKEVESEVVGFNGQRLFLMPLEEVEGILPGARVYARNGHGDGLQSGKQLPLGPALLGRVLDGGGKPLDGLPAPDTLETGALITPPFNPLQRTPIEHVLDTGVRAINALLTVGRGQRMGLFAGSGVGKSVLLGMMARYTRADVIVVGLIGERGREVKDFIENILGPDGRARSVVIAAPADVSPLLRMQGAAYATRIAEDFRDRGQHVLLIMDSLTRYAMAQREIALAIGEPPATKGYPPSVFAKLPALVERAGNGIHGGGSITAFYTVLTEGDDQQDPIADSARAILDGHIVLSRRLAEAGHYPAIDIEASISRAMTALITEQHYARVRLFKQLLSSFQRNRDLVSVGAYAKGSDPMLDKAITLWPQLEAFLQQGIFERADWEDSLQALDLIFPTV", "test": "BLI", "conditions": "both partners purified"}, "FliI [5]": {"target": "T1, FliI", "test": "BLI; FlhBC ligand on streptavidin sensors, FliI analyte 4, 2, 1, 0.5 and 0.25 uM without ATP; HBS-T, 25°C; global one-state association-then-dissociation model", "conditions": "both partners purified"}, "[6]": {"target": "the molecule itself", "test": "AUC; sedimentation equilibrium, buffer with 33 mM C8E5, scans at 280 nm; fit to a single-species model"}, "[7]": {"target": "T2, full-length wild-type FlhB (Salmonella enterica, UniProt P40727)", "T2 construct": "also called FlhB from pMM9; source: overproduced from pMM9, purified under nondenaturing conditions from solubilized crude membrane fractions", "T2 sequence 1": "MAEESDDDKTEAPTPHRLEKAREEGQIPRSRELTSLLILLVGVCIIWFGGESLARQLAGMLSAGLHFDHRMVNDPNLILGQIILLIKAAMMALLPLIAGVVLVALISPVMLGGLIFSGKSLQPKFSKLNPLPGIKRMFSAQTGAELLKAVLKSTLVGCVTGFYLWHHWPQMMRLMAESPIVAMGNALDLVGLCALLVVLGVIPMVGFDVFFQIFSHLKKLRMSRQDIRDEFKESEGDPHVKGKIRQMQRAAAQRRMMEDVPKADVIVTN", "T2 sequence 2": "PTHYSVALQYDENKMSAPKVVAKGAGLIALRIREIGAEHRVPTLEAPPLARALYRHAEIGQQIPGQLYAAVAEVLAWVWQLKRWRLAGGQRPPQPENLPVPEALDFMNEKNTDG", "test": "BLI", "conditions": "both partners purified"}},
  "note": "Like-named read-outs stand apart in the source and are kept apart here.",
  "data": [
    {"molecule": "FliK (from UniProt P26416)", "values": [
      {"measurement": "Kd", "setting": "[1]", "value": 3.2, "unit": "µM"}
    ]},
    {"molecule": "cytoplasmic domain of FlhB (FlhBC) (from UniProt P40727 212-383) (domain or fragment)", "values": [
      {"measurement": "Kd", "setting": "[2]", "value": 1100, "unit": "nM"},
      {"measurement": "koff, fast state of the global two-state dissociation fit", "setting": "[2]", "value": 0.13, "unit": "s⁻¹"},
      {"measurement": "koff, slow state of the global two-state dissociation fit", "setting": "[2]", "value": 0.0047, "unit": "s⁻¹"},
      {"measurement": "Kd", "setting": "[3]", "value": 1000, "unit": "nM"},
      {"measurement": "koff", "setting": "[3]", "value": 0.085, "unit": "s⁻¹"},
      {"measurement": "kon", "setting": "[3]", "value": 85000, "unit": "M⁻¹ s⁻¹"},
      {"measurement": "KD of the initial binding event", "setting": "FliK", "value": 8, "unit": "µM"},
      {"measurement": "Kd", "setting": "FliK", "value": 2100, "unit": "nM"},
      {"measurement": "k1 (observed rate constant of initial binding) at 1 uM FlhBC", "setting": "FliK", "value": 0.05, "unit": "s⁻¹"},
      {"measurement": "k1 (observed rate constant of initial binding) at 2 uM FlhBC", "setting": "FliK", "value": 0.1, "unit": "s⁻¹"},
      {"measurement": "k1 (observed rate constant of initial binding) at 3 uM FlhBC", "setting": "FliK", "value": 0.2, "unit": "s⁻¹"},
      {"measurement": "k1 (observed rate constant of initial binding) at 4 uM FlhBC", "setting": "FliK", "value": 0.25, "unit": "s⁻¹"},
      {"measurement": "k1 (observed rate constant of initial binding) at 5 uM FlhBC", "setting": "FliK", "value": 0.25, "unit": "s⁻¹"},
      {"measurement": "k2 (dissociation of AB to the free proteins), simulation at 1 uM FlhBC", "setting": "FliK", "value": 0.44, "unit": "s⁻¹"},
      {"measurement": "k2 (dissociation of AB to the free proteins), simulation at 2 uM FlhBC", "setting": "FliK", "value": 0.44, "unit": "s⁻¹"},
      {"measurement": "k2 (dissociation of AB to the free proteins), simulation at 3 uM FlhBC", "setting": "FliK", "value": 0.44, "unit": "s⁻¹"},
      {"measurement": "k2 (dissociation of AB to the free proteins), simulation at 4 uM FlhBC", "setting": "FliK", "value": 0.44, "unit": "s⁻¹"},
      {"measurement": "k2 (dissociation of AB to the free proteins), simulation at 5 uM FlhBC", "setting": "FliK", "value": 0.44, "unit": "s⁻¹"},
      {"measurement": "k3 (shift from AB to AB*), simulation at 1 uM FlhBC", "setting": "FliK", "value": 0.0085, "unit": "s⁻¹"},
      {"measurement": "k3 (shift from AB to AB*), simulation at 2 uM FlhBC", "setting": "FliK", "value": 0.0085, "unit": "s⁻¹"},
      {"measurement": "k3 (shift from AB to AB*), simulation at 3 uM FlhBC", "setting": "FliK", "value": 0.0085, "unit": "s⁻¹"},
      {"measurement": "k3 (shift from AB to AB*), simulation at 4 uM FlhBC", "setting": "FliK", "value": 0.0085, "unit": "s⁻¹"},
      {"measurement": "k3 (shift from AB to AB*), simulation at 5 uM FlhBC", "setting": "FliK", "value": 0.0085, "unit": "s⁻¹"},
      {"measurement": "k4 (shift from AB* to AB), simulation at 1 uM FlhBC", "setting": "FliK", "value": 0.008, "unit": "s⁻¹"},
      {"measurement": "k4 (shift from AB* to AB), simulation at 2 uM FlhBC", "setting": "FliK", "value": 0.008, "unit": "s⁻¹"},
      {"measurement": "k4 (shift from AB* to AB), simulation at 3 uM FlhBC", "setting": "FliK", "value": 0.008, "unit": "s⁻¹"},
      {"measurement": "k4 (shift from AB* to AB), simulation at 4 uM FlhBC", "setting": "FliK", "value": 0.008, "unit": "s⁻¹"},
      {"measurement": "k4 (shift from AB* to AB), simulation at 5 uM FlhBC", "setting": "FliK", "value": 0.008, "unit": "s⁻¹"},
      {"measurement": "koff of the initial binding event", "setting": "FliK", "value": 0.44, "unit": "s⁻¹"},
      {"measurement": "kon of the initial binding event", "setting": "FliK", "value": 55000, "unit": "M⁻¹ s⁻¹"}
    ]},
    {"molecule": "cytoplasmic domain of FlhB (FlhBC) (domain or fragment, biotin by amine crosslinking (NHS-LC-LC-biotin) when used as ligand, source: E. coli BL21DE3(pLysS), purified (Talon IMAC, gel filtration into HBS-T)) QIFSHLKKLRMSRQDIRDEFKESEGDPHVKGKIRQMQRAAAQRRMMEDVPKADVIVTNPTHYSVALQYDENKMSAPKVVAKGAGLIALRIREIGAEHRVPTLEAPPLARALYRHAEIGQQIPGQLYAAVAEVLAWVWQLKRWRLAGGQRPPQPENLPVPEALDFMNEKNTDG", "values": [
      {"measurement": "Kd", "setting": "FliI [4]", "value": 1100, "unit": "nM"},
      {"measurement": "Kd", "setting": "FliI [5]", "value": 84, "unit": "nM"},
      {"measurement": "koff", "setting": "FliI [5]", "value": 0.0015, "unit": "s⁻¹"},
      {"measurement": "kon", "setting": "FliI [5]", "value": 18000, "unit": "M⁻¹ s⁻¹"}
    ]},
    {"molecule": "full-length FlhB(N269A), uncleavable variant (natural protein) MAEESDDDKTEAPTPHRLEKAREEGQIPRSRELTSLLILLVGVCIIWFGGESLARQLAGMLSAGLHFDHRMVNDPNLILGQIILLIKAAMMALLPLIAGVVLVALISPVMLGGLIFSGKSLQPKFSKLNPLPGIKRMFSAQTGAELLKAVLKSTLVGCVTGFYLWHHWPQMMRLMAESPIVAMGNALDLVGLCALLVVLGVIPMVGFDVFFQIFSHLKKLRMSRQDIRDEFKESEGDPHVKGKIRQMQRAAAQRRMMEDVPKADVIVTAPTHYSVALQYDENKMSAPKVVAKGAGLIALRIREIGAEHRVPTLEAPPLARALYRHAEIGQQIPGQLYAAVAEVLAWVWQLKRWRLAGGQRPPQPENLPVPEALDFMNEKNTDG", "values": [
      {"measurement": "stoichiometry N", "setting": "[6]", "value": 2}
    ]},
    {"molecule": "FliH (natural protein, biotin by amine crosslinking (NHS-LC-LC-biotin) when used as ligand, source: E. coli BL21DE3(pLysS), purified (Talon IMAC, gel filtration into HBS-T)) MSNELPWQVWTPDDLAPPPETFVPVEADNVTLTEDTPEPELTAEQQLEQELAQLKIQAHEQGYNAGLAEGRQKGHAQGYQEGLAQGLEQGQAQAQTQQAPIHARMQQLVSEFQNTLDALDSVIASRLMQMALEAARQVIGQTPAVDNSALIKQIQQLLQQEPLFSGKPQLRVHPDDLQRVEEMLGATLSLHGWRLRGDPTLHHGGCKVSADEGDLDASVATRWQELCRLAAPGVL", "values": [
      {"measurement": "KD with the 2 μM sample included", "setting": "[7]", "value": 0.9, "unit": "µM"},
      {"measurement": "Kd", "setting": "[7]", "value": 800, "unit": "nM"}
    ]}
  ]
}
